Experiment [1] has as its target actin fused with ALFA tag, expressed in XTC cells. Put plainly: single-molecule time-lapse imaging on fixed XTC cells expressing ALFA tag-fused actin; reference NbALFA WT.
Experiment [2] has as its target actin fused with FLAG tag, expressed in XTC cells. Description: single-molecule time-lapse imaging on fixed XTC cells expressing tag-fused actin; reference 2H8 WT.
For experiment [3], the target named is actin fused with S tag, expressed in XTC cells. Description: single-molecule time-lapse imaging on fixed XTC cells expressing tag-fused actin; reference S66B WT.
Experiment [4] addresses actin fused with TARGET tag, expressed in XTC cells. Description: single-molecule time-lapse imaging on fixed XTC cells expressing tag-fused actin; reference P20.1 WT.
Experiment [5] deals with mCherry-VGLUT1 overexpressed in CTC cells. Description: single-molecule time-lapse imaging on fixed CTC cells overexpressing mCherry-VGLUT1; reference NV-Nb9 WT.
Experiment [6] has as its target actin fused with HA tag, expressed in XTC cells. Put plainly: single-molecule time-lapse imaging on fixed XTC cells expressing tag-fused actin; reference 12CA5 WT.
Experiment [7] deals with mCherry-Hommer1 overexpressed in CTC cells. Description: single-molecule time-lapse imaging on fixed CTC cells overexpressing mCherry-Hommer1; reference HS69 WT.

“anti-ALFA tag nanobody clone NbALFA, mutant code H2 (V27G, T28A, Y37A, E53A, R60A, V99A) (VHH)” returned a fold rise of the dissociation constant against WT in experiment [1] of 1000 times. In the case of “anti-FLAG antibody clone 2H8, mutant code H1L3 (HS28A, LY96A), Fv-EGFP (from UniProt P01631 1-113)”, the fold rise of the dissociation constant against WT in experiment [2] was 50 times. In turn, “anti-S tag antibody clone S66B, mutant code H1L0 (HS28A), Fv-EGFP (from UniProt P03976 1-113)” had a fold rise of the dissociation constant against WT in experiment [3] of 2 times. “anti-TARGET tag antibody clone P20.1, mutant code H1L0 (HY59G), Fv-EGFP (from UniProt P01724 22-129)”: the fold rise of the dissociation constant against WT in experiment [4] came out at 10 times.

B1: anti-VGLUT nanobody clone NV-Nb9, mutant code H4 (R27G, T28A, Y32A, F37A, Y102A) (VHH)
VHH: QVQLQESGGGLVQAGDSLRLSCAASGGAWSIAGMGWARQAPGKEREFVAGITWRGGNTHYADFVKGRFTISRDNVKNTVYLQMNSLKPEDTAVYYCAANPNPSGSSVYRRNDAWGQGTQVTVSS
Molecule B1 came in with a fold rise of the dissociation constant against WT in experiment [5] of 50 times.

B2: anti-HA tag antibody clone 12CA5, mutant code H6L2 (HT28A, HY32A, LY49A), Fv-EGFP (protein)
heavy: EVKLVESGGDLVKPGGSLKLSCAASGFAFSSAGMSWVRQTPDKRLEWVATISRGGSYTYYPDSVKGRFTISRDNAKNTLYLQMSSLKSEDTAMYYCARRETYDEKGFAYWGQGTTVTVSS
light: DIELTQSPSSLTVTAGEKVTMSCKSSQSLLNSGNQKNYLTWYQQKPGQPPKLLIAWASTRESGVPDRFTGSGSGRDFTLTISSVQAEDLAVYYCQNDNSHPLTFGAGTKLELKA
B2: in experiment [6], the fold rise of the dissociation constant against WT was 100 times.

B3: anti-Homer nanobody clone HS69, mutant code H3 (S27G, T28A, F37A, Y59A) (VHH)
VHH: QVKLQESGGRLVQAGGSLRLSCTASGGAFSNSAMGWARQAPGKQRELVASIANEGQFTNAAASVKGRFTISRDNTKNVLFLQMNSLKPEDTAVYYCKLYSGRIGSSDVWGQGTQVTVSS
The molecule B3 registered a fold rise of the dissociation constant against WT in experiment [7] of 100 times.

The values above are taken from patent WO2024034543A1.
